Laboratory results as given in the nanobody polyreactivity screen of Harvey et al. (2022).

Test: yeast display, Sf9 membrane polyspecificity reagent, FACS + sequencing; frameworks hold sequencing errors
In short: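 Sorting gates, low and high (top ~1%), were placed on anti-HA fluorescence to track expression and on streptavidin fluorescence to track reagent binding. A clone's polyreactivity label is taken from the gate it came out of. The reagent was 10% biotinylated, detergent-solubilized Sf9 membrane, applied for 1 hour at 4 °C to galactose-induced yeast display cells.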

For “QVQLVESGGGLVKAGGSLRLSCAASGFTFAYYAMGWYRQAPGKERELVAAISGSGGSTYYADSVKGRFTISRDNAKNTVYLQMNSLKPEDTAVYYCAAARRSTWSYSYYWGQGTQVTVSS”, which “polyreactivity (PSR sort gate)” value is on record?
The value was “high polyreactivity”.

Which “polyreactivity (PSR sort gate)” value does the source give for “QVQLVESGGGLVKAGGSLRLSCAASGFTFPQYAMGWYRQAPGKERELVAAISKRSVGTRYADSVKGRFTISRDNAKNTLYLQMNSLKPEDTAVYYCNKYGQVPGYFSLDYWGQGTQVTVSS” here?
Its value is “high polyreactivity”.

For “QVQLVESGGGLVKAGGSLRLSCAASGFTYSTYAMGWYRQAPGKEREFVAAISRSGGSTYYADSVKGRFTISRDNAKNTVYLQMNSLKPEDTAVYYCAVRPYRSAGGSVTRGAYYYWGQGTQVTVSS”, which “polyreactivity (PSR sort gate)” value is on record?
Its value is “high polyreactivity”.

With “QVQLVESGGGLVKAGGSLRLSCAASGITFYIYDMGWYRQAPGKERELVATISWSDGRTYYADSVKGRFTISRDNAKNTVYLQMNSLKPEDTAVYYCASDWWYYQFDYEYWGQGTQVTVSS” as the sequence, how does the “polyreactivity (PSR sort gate)” value read?
The value was “low polyreactivity”.

With “QVQLVESGGGLVKAGGSLRLSCAASGLISWLYVMGWYRQAPGKERELVAAIRYSGGRTYYADSVKGRFTISRDNAKNTVYLQMHSMKPEDTAVYYCNALPWALYDSTSIYYYWGQGTQVTVSS” as the sequence, how does the “polyreactivity (PSR sort gate)” value read?
The value was “low polyreactivity”.

With “QVQLVESGGGLVKAGGSLRLSCAASGRIFRYYVMGWYRQAPGKERELVASISWRGTSTYYADSVKGRFTISRDNAKNTVYLQMNSLKPEDTAVYYCNAARPGKNYDSWGQGTQVTVSS” as the sequence, how does the “polyreactivity (PSR sort gate)” value read?
Its value is “high polyreactivity”.

For “QVQLVESGGGLVKAGGSLRLSCAASGRIFSRNAMGWYRQAPGKERELVAAITRRGGNTYYADSVKGRFTISRDNAKNTVYLQMNSLKPEDTAVYYCATRRYYQRWSPGYDYWGQGTQVTVSS”, which “polyreactivity (PSR sort gate)” value is on record?
Its value is “high polyreactivity”.

With “QVQLVESGGGLVKAGGSLRLSCAASGRIFWAYAMGWYRQAPGKERELVAAINSGGRTYYADSVKGRFTISRDNAKNTVYLQMNSLKPEDTAVYYCAAAGVYSSDYWGQGTQVTVSS” as the sequence, how does the “polyreactivity (PSR sort gate)” value read?
Its value is “low polyreactivity”.

With “QVQLVESGGGLVKAGGSLRLSCAASGRTFGSYAMGWYRLAPGTERELVAAITGSGAGTYYADSVKGRFTISRDNAKNTVYLQMNSLKPEDTSVYYCAARRPWQFYYWVQGTQVTVSS” as the sequence, how does the “polyreactivity (PSR sort gate)” value read?
The value was “high polyreactivity”.

For “QVQLVESGGGLVKAGGSLRLSCAASGRTFGWYVMGWYRQAPGKEMELVAAISLRGGTTYYADSVKGRFTISRDNAKNTVYLQMNSLNPEDTAVYYCAIAGIRHVTCKFKGYHFGYWGQGTQVTVSS”, which “polyreactivity (PSR sort gate)” value is on record?
The value was “low polyreactivity”.

For “QVQLVESGGGLVKAGGSLRLSCAASGRTFGYNAMGWYRQAPGKEREFVAAISWSGGRTYYADSVKGRFTISRDNAKNTVYLQMNSLKPEDTAVYYCAAAAPHLSAKMDYWGQGTQVTVSS”, which “polyreactivity (PSR sort gate)” value is on record?
Its value is “low polyreactivity”.

Which “polyreactivity (PSR sort gate)” value does the source give for “QVQLVESGGGLVKAGGSLRLSCAASGRTFLRNAMGWYRQAPGKERELVATITRGGSTYYADSVKGRFTISRDNAKNTVYLQMNSLKPEDTAVYYCAKDITGCFRRPDYGYWGQGTQVTVSS” here?
The value was “low polyreactivity”.

Which “polyreactivity (PSR sort gate)” value does the source give for “QVQLVESGGGLVKAGGSLRLSCAASGRTFQVYDMGWYRQAPGKERELVAGITRAGSTYYADSVKGRFTISRDNAKNSVYLQMNRLKPEDSAVYYCAASRWHGYNYWGQGTQVTVSS” here?
The value was “high polyreactivity”.

For “QVQLVESGGGLVKAGGSLRLSCAASGRTFRDNAMGWYIQAPGKERELVADIDIDSSTYYADSVKGRFTISRDNAKNTVYLQMNSLKPEDTAVYYCAATFTYLGYWYDYWGQCTQVTVSS”, which “polyreactivity (PSR sort gate)” value is on record?
Its value is “low polyreactivity”.

Which “polyreactivity (PSR sort gate)” value does the source give for “QVQLVESGGGLVKAGGSLRLSCAASGSIFAFYAMGWYRPAPGKERELVAAINSGGGRTYYEDSVKGRFTISRDNAKYTVYLQMNSLKPEDTAVYYCAARTIHGSNRSYYWGQGTQVTVSS” here?
The value was “high polyreactivity”.

For “QVQLVESGGGLVKAGGSLRLSCAASGSIFRYYTMGWYRQAPGKEWELVAAINGSGGSTYYADSVKGRFTISRDTAKNTVYLQMNSLKPEDTAVYYCNRVTKEYGLRQYYYWGQGTQVTVSS”, which “polyreactivity (PSR sort gate)” value is on record?
The value was “low polyreactivity”.

Which “polyreactivity (PSR sort gate)” value does the source give for “QVQLVESGGGLVKAGGSLRLSCAASGSMFWSYAMGWYRQAPGKERELVAAISSGGSTNYADTVKGRFTISRDNAKNTVYLQMNSLKPEDTAVYYCSARFYTTCVRRKRYDYWGQGTQVNVSS” here?
Its value is “high polyreactivity”.

With “QVQLVESGGGLVKAGGSLRLSCAASGSTFTYYAMGWYRQAPGKERELVARITWTGGRTYYADSVKGRFTISRGNAKNTVYLQMNSLKPEDTAVNYCNALPYFYETQYDYWGQGTQVTVSS” as the sequence, how does the “polyreactivity (PSR sort gate)” value read?
Its value is “low polyreactivity”.

With “QVQLVESGGGLVKAGGSLRLSCASSGYIFPFNAMGWYRQAPGKERELVAAITNGGRTYYADSVKGRFTISRDNAKNTVYLQMNSLKPDDTSVYYCAAGSKSDMDWGQGTQVTVSS” as the sequence, how does the “polyreactivity (PSR sort gate)” value read?
Its value is “low polyreactivity”.

Which “polyreactivity (PSR sort gate)” value does the source give for “QVQLVESGGGLVKAGGSLRLSCDASGRIFKYYAMGWYRPAPGKEWELVAAISSVGYTNYADSVKGRFTISRDNAKNTVYLQLNSLKPEDTAVYYCAAPYQHYDVNYDSWGQGTQVTVSS” here?
Its value is “low polyreactivity”.

With “QVQLVESGGGLVKAGGSLRLSSAASGYNTNTYAMGWYRQAPGKERELVAAISGSGGSTYYADSVKGRFTMSRDNAKTTVYLQMNSLKPEDTAVYYCNVVVRYPSAYDYWGQGTQVTVSS” as the sequence, how does the “polyreactivity (PSR sort gate)” value read?
Its value is “high polyreactivity”.

For “QVQLVESGGGLVKAVGSLRLSCAPSGRISGVYAMGWYRQAPGKERELVAAISWSGGPTYYADSVKGRFTISRDNAKNTFYLEMTSLKPEDTAVYYCNGDTGFRSYLRVYWGQGTQVTVSS”, which “polyreactivity (PSR sort gate)” value is on record?
Its value is “low polyreactivity”.

Which “polyreactivity (PSR sort gate)” value does the source give for “QVQLVESGGGLVKEGGSLRLSSAASGSTNRYYAMGLYRQAPGKERELVAGITTGGGRTYYADSEKGRFTISRDNAKYTVYLQMTSLKPEDTAVYYCAADRLSHYWYRISYDYWGQCTQVTVSS” here?
Its value is “high polyreactivity”.

With “QVQLVESGGGLVKSGGSLRLSCAASGRIFYLYAMGWYRQAPGKERELVAAISRRGGGTSYADSVKGRFTISRDNAKNTVYFQMNSLKPEDTAVYYCNTAYSLGGYWGQGTQVTVSS” as the sequence, how does the “polyreactivity (PSR sort gate)” value read?
Its value is “high polyreactivity”.

For “QVQLVESGGGLVLAAGSLRLSCAASGFIFGSYAMGWYRQAPGKERELFAAISRSGGRTYYADSVKGRFTISRDNAKNTVYLQMNSLKPEDTAVYYCAAVHLLVYPTYDYWGQGTQVTVSS”, which “polyreactivity (PSR sort gate)” value is on record?
Its value is “high polyreactivity”.

Which “polyreactivity (PSR sort gate)” value does the source give for “QVQLVESGGGLVLAGGRLRLSCAASGFTLDYYTMGWYRLAPGKEREFVAAITRRTGNTYYADSVKGRFTISRDNEKITVYLQMNSLKPEDPAVYYCAATFWPWYSGITYYYWGQGTQVTVSS” here?
The value was “high polyreactivity”.

For “QVQLVESGGGLVLAGGSLRLSCAASGFIFATYAMGWYRQAPGKERVLVAAISRRGVRTNYADSVKGRFTISRDNAKNTVYLQMNSLKPEDTAVYYSNAQSHYGKIPMYYWGQGTQVTVSS”, which “polyreactivity (PSR sort gate)” value is on record?
The value was “high polyreactivity”.

With “QVQLVESGGGLVLAGGSLRLSCAASGFIFSPYVRGWYRQAPGKDRELVAAISSIGGSTYYADSVKGRFTISRDNAKNTVFLQMNSLKPEDTAVYYCADSVYYYASRYDYWGQVTQVTVSS” as the sequence, how does the “polyreactivity (PSR sort gate)” value read?
Its value is “low polyreactivity”.

For “QVQLVESGGGLVLAGGSLRLSCAASGFTFEKSVMGWYRQAPGNEREFVAAITRSGGRTYYADSVKGRFTISRDNAKNTVYLQMNSLKPEDTAVYFCAAAFSRSDTGGGSWGQGTQVTVSS”, which “polyreactivity (PSR sort gate)” value is on record?
Its value is “high polyreactivity”.

Which “polyreactivity (PSR sort gate)” value does the source give for “QVQLVESGGGLVLAGGSLRLSCAASGITFRNYAMGWYRQAPGKEMEFVATISRRAGSTYYADSVKGRFTISRDNAKNTVYLQMNSLKPEDTAVYYCVTYRNWWYDYWGQGTQVTVSS” here?
The value was “high polyreactivity”.

With “QVQLVESGGGLVLAGGSLRLSCAASGLTFEYNAMGWYRQAPGKEGELVASISSGGGTNYADSVKGRFTISRDNAKHTVYLQMNSLKPEDTAVYYCATDNYDWSSWAFRGYWYDYWGQGTQVTVSS” as the sequence, how does the “polyreactivity (PSR sort gate)” value read?
The value was “low polyreactivity”.

With “QVQLVESGGGLVLAGGSLRLSCAASGRIFYQNAMGWYRQAPGKERELVAGITRGGSTYYADSVKGRFTISRDNAKNTVYLQMNSLKPEETAVYYCAVAFWRTKWYDYWGQGTQVTVSS” as the sequence, how does the “polyreactivity (PSR sort gate)” value read?
The value was “low polyreactivity”.

Which “polyreactivity (PSR sort gate)” value does the source give for “QVQLVESGGGLVLAGGSLRLSCAASGRTFKKYAMGWYRQAPGKVRELVAAITSGGSTYYADSVKGRFTISRDNAKNTVYLQMNSLKPEDTAVYYCAAASSQHGNTYYYWGQATQVTVSS” here?
The value was “high polyreactivity”.

With “QVQLVESGGGLVLAGGSLRLSCAASGSIFIHYAMGWYRQARGKERELVAAITGDGNTTYADSVKGRFTISRDNAQNTVNLPINSLKPEDTAVYSCAVTIVDYVWAFDYWGQGTQVNVSS” as the sequence, how does the “polyreactivity (PSR sort gate)” value read?
Its value is “low polyreactivity”.

With “QVQLVESGGGLVLAGGSLRLSCAASGSIFNVYAMGWYRQAPGKERELVASITRRRTNYADSVKGRFTISRDNAKNTVYLQMNSLKPEDTAVYYCAATTYVRQYATYDYWGQGTQVTVSS” as the sequence, how does the “polyreactivity (PSR sort gate)” value read?
Its value is “high polyreactivity”.

With “QVQLVESGGGLVLAGGSLRLSCAASGSIFWVNAMGWYRQAPGKERELVAAINYSDGSTSYADSVKGRFTISRDIAKNTVYLQMNSLKPEDTAVYYCNAESFELMYYWGQGTQVTVSS” as the sequence, how does the “polyreactivity (PSR sort gate)” value read?
Its value is “low polyreactivity”.

With “QVQLVESGGGLVLAGGSLRLSCAASGSILGTYAMGWYRQAPGKERELVARISRGGSTNYADSVKGRFTISRDNAKNTVYLQMNSLKPEDTAVYYCAKRLYLPESWRYYYWGQGTQVTVSS” as the sequence, how does the “polyreactivity (PSR sort gate)” value read?
The value was “high polyreactivity”.

Which “polyreactivity (PSR sort gate)” value does the source give for “QVQLVESGGGLVLAGGSLRLSCAASGSTFGGYAMGWYRQATGKERELVAAISGSGVRTYYADSVKGRFTISRDNAKNTVYLQMNSRKPEDTAVYYCAKRVRYPGDRYYYWGQGTQVTVSS” here?
The value was “high polyreactivity”.

For “QVQLVESGGGLVLEGGSLRLSCPASGRIFTWNAMGWYRHAPGKERELVASISRSGTSTYYADSVKGRFTISRDNAKNTVYLQMNSLKPEDTAVYYCAAKRYGYKMYYWGQGTQVTVSS”, which “polyreactivity (PSR sort gate)” value is on record?
The value was “high polyreactivity”.

For “QVQLVESGGGLVLPGGSLRLSCAASGITFTYNAMGWYRQAPGQERELVAAISYSGGSTYYADSVKGRFTISRDNAKNTVYLQMNSLTPEDTAVYYCARRRLLYSGGKSGYYGYYYWGQGTQVNVSS”, which “polyreactivity (PSR sort gate)” value is on record?
Its value is “high polyreactivity”.

Which “polyreactivity (PSR sort gate)” value does the source give for “QVQLVESGGGLVLPGGSLRLSCAASGSTLYPYAMGWYRQAPGKERELVAAITYGGTSTYYADSVKGRFTISRDNAKNTVYLQMNSQKPEDTALYYCAARGGTTIRYDYWGQGTQVTVSS” here?
The value was “high polyreactivity”.

Which “polyreactivity (PSR sort gate)” value does the source give for “QVQLVESGGGLVPAGGSLRLSCAASGFTFPAYTRGWYRPAPGKERELVAAITSSGGNTYYADSVKGRFTISRDNAKNTVYLQMNSLKPEDTAVYYCNADASSSPYTDRQYIGADDSWGQGTQVTVSS” here?
The value was “low polyreactivity”.

Which “polyreactivity (PSR sort gate)” value does the source give for “QVQLVESGGGLVPAGGSLRLSCAASGFTLYRYVMGWYRQAPGKERELVAAITRGGNTNYADSVKGRFTISRDNAKKTVYLQKNSLKPEDTAVYDCARRYRDYGRYGYWGQGTQVTVSS” here?
Its value is “high polyreactivity”.
